# Patent publication US20130316929A1 (Daiichi Sankyo, published 2013)
# Key:
# [1] = target: T1, Recombinant Human EphA2, CF (human, UniProt P29317 25-534); test: phage ELISA, hEphA2 immobilized on a Maxisorp plate, two-fold dilutions of phage stock, anti-M13-HRP, OD405 nm [A) (1]
# T1 construct: Bought recombinant protein; also called hEphA2; recombinant hEphA2
# Method: (§1) As to 3 clones (α-EphA2 #1 to #3: corresponding to SEQ ID NOs: 3 to 5, respectively, in the Sequence Listing and to Nos. 2 to 4, respectively in FIG. 4) selected from the Escherichia coli colonies after the final round of panning with hEphA2 as a target molecule, an Escherichia coli suspension with OD_{600 nm}=0.3 was prepared using 2×YT/Amp/1% Glu. The Escherichia coli cells of each clone were shake-cultured at 37° C. and allowed to grow until OD_{600 nm}=0.5. A sufficient amount of helper phages M13K07 was added thereto to infect the cells at 37° C. for 30 minutes. After addition of 2×YT/Amp/Kan/0.25 mM IPTG, the helper phage-infected Escherichia coli was shake-cultured overnight at 22° C. 20% PEG/2.5 M NaCl solution was added to the recovered culture supernatant to precipitate phages. The precipitated phages were suspended in PBS. This phage stock solution and a series of two-fold dilutions with PBS were used in phage ELISA. An Escherichia coli TG-1 strain having a pCANTAB 5E vector containing the wild-type TACI_d2 gene was also subjected to the same operation as above to prepare phages.
# (§2) TACI_d2 mutant-displaying phages were added to these Maxisorp plates and reacted for 2 hours. Each Maxisorp plate was washed with TBST. Then, an Anti-M13 antibody diluted 5000-fold was added thereto. After washing of the Maxisorp plate with TBST again, the amount of a phage bound with the protein solid-phase immobilized on the plate was detected as absorbance at a wavelength of 405 nm using ELISA POD.
# [2] = target: T2, human EphA2 expressed on cell surface (human, UniProt P29317 24-976); test: flow cytometry, phage stock on transfected HEK293T cells, anti-M13 antibody and fluorescein anti-mouse IgG, FL1 [A) (1]
# T2 construct: whole, on cells; also called human EphA2-expressing cells
# Method: as §1, with “The” for “As to 3 clones (α-EphA2 #1 to #3: corresponding to SEQ ID NOs: 3 to 5, respectively, in the Sequence Listing and to Nos. 2 to 4, respectively in FIG. 4) selected from the Escherichia coli colonies after the final round of panning with hEphA2 as a target molecule, an Escherichia coli suspension with OD_{600 nm}=0.3 was prepared using 2×YT/Amp/1% Glu. The”
# (§3) The transfected cells were recovered. The recovered cells were suspended in a FACS buffer (PBS containing 5% FBS) and applied to a nylon mesh. The solution was dispensed in an amount of 5×10⁵ cells/well to 96 Well Cell Culture Cluster Round Bottom With Lid (manufactured by Costar, Corning Inc.) and centrifuged to remove a supernatant. The phage stock solution prepared in the paragraph 1) of Example 4 was added to the resulting cells at a concentration of 50 μL/well, and the mixture was left standing at 4° C. for 30 minutes. […] Fluorescently stained cells were detected.
# [3] = target: T2, human EphA2 expressed on cell surface; test: flow cytometry, phage stock on transfected HEK293T cells, anti-M13 antibody and fluorescein anti-mouse IgG, FL1 [A) (2]
# Method: as §1, with “The” for “As to 3 clones (α-EphA2 #1 to #3: corresponding to SEQ ID NOs: 3 to 5, respectively, in the Sequence Listing and to Nos. 2 to 4, respectively in FIG. 4) selected from the Escherichia coli colonies after the final round of panning with hEphA2 as a target molecule, an Escherichia coli suspension with OD_{600 nm}=0.3 was prepared using 2×YT/Amp/1% Glu. The”
# as §3
# [4] = target: T3, IgG-Free, Protease-Free Bovine Serum Albumin (bovine, UniProt P02769 25-607); test: phage ELISA, BSA immobilized on a Maxisorp plate, two-fold dilutions of phage stock, anti-M13-HRP, OD405 nm [A) (2]
# T3 construct: also called BSA
# Method: as §1
# as §2, with “Each Maxisorp plate was washed with TBST. Then, an Anti-M13 antibody diluted 5000-fold was added thereto.” left out
# [5] = target: T2, human EphA2 expressed on cell surface; test: flow cytometry, phage stock on transfected HEK293T cells, anti-M13 antibody and fluorescein anti-mouse IgG, FL1 [B) (4]
# Method: as §1, with “The” for “As to 3 clones (α-EphA2 #1 to #3: corresponding to SEQ ID NOs: 3 to 5, respectively, in the Sequence Listing and to Nos. 2 to 4, respectively in FIG. 4) selected from the Escherichia coli colonies after the final round of panning with hEphA2 as a target molecule, an Escherichia coli suspension with OD_{600 nm}=0.3 was prepared using 2×YT/Amp/1% Glu. The”
# as §3
# [6] = target: T4, Recombinant Human VEGF165 (human, UniProt P15692-4 27-191); test: SPR, Biacore 3000, hVEGF immobilized on sensor chip, mutant applied at various concentrations
# T4 construct: Isoform VEGF165; also called hVEGF
# From the text: Examples of the determination-calculation system of surface plasmon resonance can include, but not limited to, Biacore system (GE Healthcare Japan Corp.). Procedures for the method using Biacore system are as follows: target molecules are immobilized onto a sensor chip of Biacore system by amine coupling; the target molecules are contacted with peptides at a plurality of peptide concentrations; the interaction therebetween is detected by surface plasmon resonance; a series of association and dissociation reactions is drawn in a sensorgram with time as the abscissa against the amount of binding (RU) as the ordinate; the sensorgram drawn at the plurality of peptide concentrations is fit to a 1:1 Langmuir model using BIAevaluation software (manufactured by GE Healthcare Japan Corp.) to calculate various rate parameters; and the dissociation constant is calculated from various rate parameters thus calculated.
# The gene of the hVEGF-binding TACI_d2 mutant (No. 9 in FIG. 4: SEQ ID NO: 10 in the Sequence Listing) obtained in Example 2 was amplified by PCR and inserted to a vector pET-32a for expression in Escherichia coli (Novagen, Merck KGaA). […] The affinity of the mutant was determined by a surface plasmon resonance method using Biacore 3000 (GE Healthcare Japan Corp.). […] The dissociation constant of the mutant for hVEGF was determined from the obtained sensorgram.
# [7] = target: T5, Recombinant Human EGF R/Fc Chimera, CF (human, UniProt P00533 25-645; P01857 100-330 = IgG part); test: phage panning and phage ELISA on hEGFR/Fc (TACI_d2 mutant binding to the extracellular domain of human EGFR)
# T5 construct: range 25-645;range 100-330; R&D systems product; also called hEGFR/Fc
# [8] = target: T4, Recombinant Human VEGF165; test: phage panning and phage ELISA on hVEGF
# Recombinant Human TNF-α = target: T6, Recombinant Human TNF-α (human, UniProt P01375 77-233); test: phage panning and phage ELISA on hTNF-α
# T6 construct: also called hTNF-α
# T6 sequence (P01375 77-233 limits assumed): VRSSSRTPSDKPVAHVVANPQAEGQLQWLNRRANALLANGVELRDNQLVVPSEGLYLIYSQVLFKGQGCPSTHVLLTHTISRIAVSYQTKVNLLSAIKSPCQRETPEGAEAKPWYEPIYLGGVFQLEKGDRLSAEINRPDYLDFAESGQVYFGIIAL
# T4 sequence (P15692 other isoform, or with tags, fused parts or gaps limits assumed): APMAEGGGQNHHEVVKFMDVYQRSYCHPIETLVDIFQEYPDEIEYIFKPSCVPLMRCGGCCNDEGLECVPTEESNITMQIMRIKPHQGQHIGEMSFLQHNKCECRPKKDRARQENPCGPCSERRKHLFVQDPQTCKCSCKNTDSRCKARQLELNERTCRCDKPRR
# T2 sequence (P29317 24-976): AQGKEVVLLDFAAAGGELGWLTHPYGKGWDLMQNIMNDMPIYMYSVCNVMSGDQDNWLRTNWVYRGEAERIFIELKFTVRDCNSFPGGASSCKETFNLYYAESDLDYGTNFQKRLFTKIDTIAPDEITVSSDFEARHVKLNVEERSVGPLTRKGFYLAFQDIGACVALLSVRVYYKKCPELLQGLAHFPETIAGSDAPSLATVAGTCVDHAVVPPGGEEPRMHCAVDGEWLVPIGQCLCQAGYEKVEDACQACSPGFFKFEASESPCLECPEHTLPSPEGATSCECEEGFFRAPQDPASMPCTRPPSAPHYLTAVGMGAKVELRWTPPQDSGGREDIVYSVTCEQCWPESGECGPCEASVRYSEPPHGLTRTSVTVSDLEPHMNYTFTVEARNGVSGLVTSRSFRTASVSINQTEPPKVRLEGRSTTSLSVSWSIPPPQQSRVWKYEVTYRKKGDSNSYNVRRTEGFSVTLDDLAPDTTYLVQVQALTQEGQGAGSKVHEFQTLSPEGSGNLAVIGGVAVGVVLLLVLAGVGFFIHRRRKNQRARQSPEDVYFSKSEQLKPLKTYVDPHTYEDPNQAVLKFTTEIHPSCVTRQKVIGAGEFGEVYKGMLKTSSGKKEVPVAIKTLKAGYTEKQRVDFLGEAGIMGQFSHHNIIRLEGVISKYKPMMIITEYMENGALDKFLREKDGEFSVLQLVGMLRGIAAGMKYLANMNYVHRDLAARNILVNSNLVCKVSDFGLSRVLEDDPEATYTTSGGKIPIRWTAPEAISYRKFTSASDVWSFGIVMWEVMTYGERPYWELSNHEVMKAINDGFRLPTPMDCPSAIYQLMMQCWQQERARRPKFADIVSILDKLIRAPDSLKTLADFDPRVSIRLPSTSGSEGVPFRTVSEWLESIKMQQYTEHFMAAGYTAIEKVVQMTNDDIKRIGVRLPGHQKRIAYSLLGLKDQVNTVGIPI
# T1 sequence (P29317 25-534 limits assumed): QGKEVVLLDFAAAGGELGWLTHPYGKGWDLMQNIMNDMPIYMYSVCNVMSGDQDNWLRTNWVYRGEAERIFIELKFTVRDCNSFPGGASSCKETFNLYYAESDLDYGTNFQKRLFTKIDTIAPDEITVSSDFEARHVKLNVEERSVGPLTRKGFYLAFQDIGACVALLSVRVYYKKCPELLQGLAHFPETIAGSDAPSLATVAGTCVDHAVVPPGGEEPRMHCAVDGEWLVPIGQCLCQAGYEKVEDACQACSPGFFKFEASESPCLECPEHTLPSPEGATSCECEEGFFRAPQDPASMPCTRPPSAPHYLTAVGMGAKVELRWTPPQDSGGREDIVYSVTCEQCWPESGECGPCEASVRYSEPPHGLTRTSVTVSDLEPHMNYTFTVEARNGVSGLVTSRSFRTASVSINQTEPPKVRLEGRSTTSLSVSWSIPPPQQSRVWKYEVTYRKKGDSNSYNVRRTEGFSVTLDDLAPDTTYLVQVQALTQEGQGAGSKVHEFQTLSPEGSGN
# T3 sequence (P02769 25-607 limits assumed): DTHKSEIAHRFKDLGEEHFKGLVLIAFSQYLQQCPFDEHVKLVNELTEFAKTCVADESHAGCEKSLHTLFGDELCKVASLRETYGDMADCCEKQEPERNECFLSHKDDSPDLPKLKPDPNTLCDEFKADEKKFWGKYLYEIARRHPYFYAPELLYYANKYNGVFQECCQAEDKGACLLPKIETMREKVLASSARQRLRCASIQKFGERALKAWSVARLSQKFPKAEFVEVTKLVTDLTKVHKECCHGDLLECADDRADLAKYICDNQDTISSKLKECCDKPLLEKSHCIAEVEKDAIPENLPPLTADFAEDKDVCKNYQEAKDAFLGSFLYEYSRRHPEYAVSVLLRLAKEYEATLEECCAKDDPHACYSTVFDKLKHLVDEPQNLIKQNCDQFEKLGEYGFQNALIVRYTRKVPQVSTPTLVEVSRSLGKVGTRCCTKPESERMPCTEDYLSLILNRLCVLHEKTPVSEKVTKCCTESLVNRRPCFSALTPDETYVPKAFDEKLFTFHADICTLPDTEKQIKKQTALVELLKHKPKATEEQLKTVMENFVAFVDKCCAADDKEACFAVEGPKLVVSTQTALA
binder,measurement,setting,value
"SLSCRKEQGKQYLLREWDCDSCASECGSHPHYCAYFCEN (designed binder, also called α-EphA2 #1) [α-EphA2 TACI_d2 #1]",binding result,[1],binds
same,binding result,[2],binds
"SLSCRKEQGKMYLLKEWDCASCASACGNHPHYCAYFCEN (designed binder, also called α-EphA2 #2) [α-EphA2 TACI_d2 #2]",binding result,[1],binds
same,binding result,[3],binds
"SLSCRKEQGKHYLLKEYDCDSCASECGYHPDYCAYFCEN (designed binder, also called α-EphA2 #3) [α-EphA2 TACI_d2 #3]",binding result,[1],binds
"SLSCRKEQGKFYDHLLRDCISCASICGQHPKQCAYFCENKLR (receptor, UniProt O14836 68-109, looked up, also called WT) [wild-type TACI_d2]",binding result,[4],no binding
same,binding result,[1],no binding
same,binding result,[5],no binding
"SLSCRKEQGKMYDLYGFDCRSCASMCGKHPDLCAYFCEN (designed binder, Expressed from pET-32a in E. coli Origami B; thioredoxin tag and His tag removed by thrombin cleavage; monomer peak of size exclusion chromatography used; also called the mutant) [hVEGF-binding TACI_d2 mutant (No. 9 in FIG. 4), purified monomer]",Kd,[6],14 µM
SLSCRKEQGKSYGAIMYDCSSCASYCGEHPWHCAYFCEN (designed binder) [human EGFR-binding peptide (1)],binding result,[7],binds
SLSCRKEQGKEYGAIAWDCSSCASYCGAHPFECAYFCEN (designed binder) [human EGFR-binding peptide (2)],binding result,[7],binds
SLSCRKEQGKNYIHQQWDCASCASECGGHPNYCAYFCEN (designed binder) [human EGFR-binding peptide (3)],binding result,[7],binds
SLSCRKEQGKWYMTWESDCKSCASWCGSHPFDCAYFCEN (designed binder) [human VEGF-binding peptide (1)],binding result,[8],binds
"SLSCRKEQGKMYDLYGFDCRSCASMCGKHPDLCAYFCEN (designed binder, The purified free form is m26) [human VEGF-binding peptide (2), phage-displayed]",binding result,[8],binds
SLSCRKEQGKMYMVWTQDCKSCASWCGAHPVACAYFCEN (designed binder) [human VEGF-binding peptide (3)],binding result,[8],binds
SLSCRKEQGKIYNQYGFDCKSCASWCGKHPDMCAYFCEN (designed binder) [human VEGF-binding peptide (4)],binding result,[8],binds
SLSCRKEQGKIYMTWHDDCHSCASLCGSHPLFCAYFCEN (designed binder) [human VEGF-binding peptide (5)],binding result,[8],binds
SLSCRKEQGKDYMVFGQDCHSCASWCGKHPVACAYFCEN (designed binder) [human VEGF-binding peptide (6)],binding result,[8],binds
SLSCRKEQGKQYMAGHFDCNSCASRYGHHPLMCAYFCEN (designed binder) [human TNFα-binding peptide (1)],binding result,Recombinant Human TNF-α,binds
SLSCRKEQDKTYIEYGFDCRSCASGCGGHPLMCAYFCEN (designed binder) [human TNFα-binding peptide (2)],binding result,Recombinant Human TNF-α,binds
SLSCRKEQGKSYTSEWFDCASCASKYGKHPLVCAYFCEN (designed binder) [human TNFα-binding peptide (3)],binding result,Recombinant Human TNF-α,binds
